Assay results as given in paper PMC9865144, “Crystal Structure of the SH3 Domain of ASAP1 in Complex with the Proline Rich Motif (PRM) of MICAL1 Reveals a Unique SH3/PRM Interaction Mode” (International Journal of Molecular Sciences, 2023).
Numbering of substitutions follows the chain as printed. Names may count otherwise. Where two headings read alike, the source gives them in different places. One block for each molecule: values may come before it.

Assays:
[1] = target: APC PRM (Homo sapiens) (UniProt P25054); details: cited from earlier work
[2] = target: T1, ASAP1-SH3 (residue 1087–1147) (mouse, UniProt Q9QWY8 1087-1147); assay: ITC
T1 chain: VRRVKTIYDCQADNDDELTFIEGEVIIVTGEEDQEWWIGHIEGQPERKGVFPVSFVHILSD

[3] = target: ASAP1-SH3 (residue 1087–1147) (mouse) (UniProt Q9QWY8); assay: ITC; PEAQ-ITC; 400 μM in the syringe, 40 μM in the cell; 50 mM Tris pH 7.5, 100 mM NaCl, 1 mM DTT, 1 mM EDTA; one-site binding model
[4] = target: T2, ASAP1-SH3 (residue 1087–1147), Q9QWY8; assay: ITC; details: chain shown with the change
T2 chain: T1 chain

[5] = target: T3, ASAP1-SH3 (residue 1087–1147) (mouse, UniProt Q9QWY8 1087-1147); assay: ITC; PEAQ-ITC; 400 μM in the syringe, 40 μM in the cell; 50 mM Tris pH 7.5, 100 mM NaCl, 1 mM DTT, 1 mM EDTA; one-site binding model; details: both partners purified
T3 construct: ASAP1, mouse, SH3 domain, residue 1087-1147; The Trx-His6 tag is followed by a 3C protease cleavage site; The limits are stated for the crystallisation; also called SH3 domain of ASAP1; source: E. coli BL21(DE3), purified (Ni-NTA, Superdex-200 gel filtration)
T3 sequence (looked up): T1 chain

[6] = target: T4, GRAF2-SH3 (residue 728–786) (human, UniProt A1A4S6 728-786); assay: as above; details: both partners purified
T4 construct: GRAF2 (GTPase Regulator associated with focal adhesion kinase 2), human, SH3 domain, residue 728-786; also called SH3^AGS of GRAF2; source: E. coli BL21(DE3), purified (Ni-NTA, Superdex-200 gel filtration)
T4 sequence (looked up): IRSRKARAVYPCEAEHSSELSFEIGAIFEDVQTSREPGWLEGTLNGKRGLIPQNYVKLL

[7] = target: T5, SKAP1-SH3 (residue 294–355) (human, UniProt Q86WV1 294-355); assay: as above; details: both partners purified
T5 construct: SKAP1 (Src kinase associated phosphoprotein 1), human, SH3 domain, residue 294-355; also called SH3^AGS of SKAP1; source: E. coli BL21(DE3), purified (Ni-NTA, Superdex-200 gel filtration)
T5 sequence (looked up): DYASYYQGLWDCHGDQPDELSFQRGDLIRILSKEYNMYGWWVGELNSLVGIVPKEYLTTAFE

[8] = target: T6, FYB1 (Homo sapiens (Human), UniProt O15117); assay: ITC, Trx fusions
T6 chain: TLGPPPPKPNRPPNV

[9] = target: T7, FAK1 (Homo sapiens (Human), UniProt Q05397); assay: ITC, Trx fusions
T7 chain: EAPPKPSRPGYPSPR

[10] = target: T8, MICAL1 (Homo sapiens (Human), UniProt Q8TDZ2); assay: ITC, Trx fusions
T8 chain: EPPPKPPRSCSALAR

[11] = target: T9, MICAL1-PRM, Q8TDZ2; assay: ITC; details: chain shown with the change
T9 chain: EPPPKPPRSCSALAR

[12] = target: T10, SKAP1-SH3 (residue 294–355) (human, UniProt Q86WV1 294-355); assay: ITC
T10 chain: T5 sequence (looked up)

[13] = target: T1, ASAP1-SH3 (residue 1087–1147); assay: ITC
[14] = target: T11, GRAF2-SH3 (residue 728–786) (human, UniProt A1A4S6 728-786); assay: ITC
T11 chain: T4 sequence (looked up)

Molecule: ASAP1 SH3 (from UniProt Q9ULH1)
- Kd [1]: 24 µM

- Kd [2]: 0.8 µM
- Kd [3]: 1 µM
Molecule: EPPPKPPRSCSALAR [MICAL1-PRM]

- Kd [4]: 0.35 µM
Molecule: EPPPRPPRSCSALAR [MICAL1-PRM, Q8TDZ2 K832R]

- binding result [5]: binds
- binding result [6]: binds
- binding result [7]: binds
B1: FAK1-PRM (residue 710–724) (peptide, UniProt Q05397 710-724, looked up)
chain: EAPPKPSRPGYPSPR
notes: FAK1, human, proline rich motif, residue 710-724; also called PRM^Px+P from FAK1; source: E. coli BL21(DE3), purified (Ni-NTA, Superdex-200 gel filtration)

- Kd [8]: 3.14 µM
- Kd [9]: 6.06 µM
- Kd [10]: 1.33 µM
B2: GRAF2_SH3 (protein)
chain: T4 sequence (looked up)

- Kd [11]: 109 µM
B3: ASAP1-SH3 (residue 1087–1147), Q9QWY8 D1099K (protein)
chain: T1 chain with D13K

- Kd [11]: 15.7 µM
B4: ASAP1-SH3 (residue 1087–1147), Q9QWY8 C1096F (protein)
chain: T1 chain with C10F

- Kd [8]: 7.59 µM
- Kd [9]: 1.97 µM
- Kd [10]: 0.82 µM
B5: ASAP1_SH3 (protein)
chain: T1 chain

- Kd [2]: 1.1 µM
B6: MICAL1-loop3 (domain or fragment)
chain: AEGSDRGPESPELPTPSENSMPPGLSTPTASQEGAGPVPDPSQPTRRQIRLSSPERQRLSSLNLTPDPEMEPPPKPPRSCSALARHALESSFVGWGLPVQSPQALVAMEKEEKESPFSSEEEEEDVPLDSDVEQALQTFAKTSGTMNNYPTWRRTLLRRA

- Kd [12]: 0.29 µM
- Kd [13]: 7.59 µM
- Kd [14]: 3.14 µM
Molecule: RPPNVDLTKFHKTSS [FYB1-PRM (residue 362–376)]

- Kd [4]: 17 µM
Molecule: EPPPPPPRSCSALAR [MICAL1-PRM, Q8TDZ2 K832P]

- Kd [8]: 0.29 µM
- Kd [9]: 7.08 µM
- Kd [10]: 5.99 µM
B7: SKAP1_SH3 (protein)
chain: T5 sequence (looked up)
